In publication PMC4434323 one finds binding signal (PBM E-score (-0.5 to 0.5)) data, which are given here for 65 sequences.

The target in series [1] is T1, fkh-9 (K03C7.2) (Caenorhabditis elegans) (UniProt Q21187).
T1 sequence: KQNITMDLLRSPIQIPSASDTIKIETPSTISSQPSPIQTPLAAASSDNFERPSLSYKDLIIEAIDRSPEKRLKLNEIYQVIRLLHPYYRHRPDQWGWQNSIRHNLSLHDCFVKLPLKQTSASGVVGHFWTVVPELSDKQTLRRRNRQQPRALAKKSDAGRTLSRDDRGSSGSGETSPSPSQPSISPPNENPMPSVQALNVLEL

In series [2] the target is T2, end-1 (F58E10.2) (Caenorhabditis elegans) (UniProt G5EDN4).
T2 sequence: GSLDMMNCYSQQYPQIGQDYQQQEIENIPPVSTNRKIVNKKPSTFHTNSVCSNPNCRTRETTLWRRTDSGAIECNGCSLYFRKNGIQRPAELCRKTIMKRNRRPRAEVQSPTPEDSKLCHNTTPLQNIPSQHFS

The target in series [3] is T3, end-3 (F58E10.5) (Caenorhabditis elegans) (UniProt Q9XUW7).
T3 sequence: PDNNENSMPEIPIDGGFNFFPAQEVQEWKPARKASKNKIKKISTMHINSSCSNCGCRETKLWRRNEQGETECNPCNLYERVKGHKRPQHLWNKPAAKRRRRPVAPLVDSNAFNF

Series [4] concerns the target T4, mab-3 (Y53C12B.5) (Caenorhabditis elegans) (UniProt O18214).
T4 sequence: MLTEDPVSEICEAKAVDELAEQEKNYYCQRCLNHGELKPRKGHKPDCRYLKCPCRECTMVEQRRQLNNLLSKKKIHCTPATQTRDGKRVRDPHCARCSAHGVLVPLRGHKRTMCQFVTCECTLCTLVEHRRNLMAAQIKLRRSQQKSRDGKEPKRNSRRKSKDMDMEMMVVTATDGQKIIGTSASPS

Series [5] deals with T5, elt-6 (F52C12.5) (Caenorhabditis elegans) (UniProt G5EGN3).
T5 sequence: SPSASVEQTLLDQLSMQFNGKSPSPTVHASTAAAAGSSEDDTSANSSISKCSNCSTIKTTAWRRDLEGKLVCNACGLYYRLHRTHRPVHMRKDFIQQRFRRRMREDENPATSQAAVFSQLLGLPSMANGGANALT

For series [6], the target named is T6, efl-2 (Y48C3A.17) (Caenorhabditis elegans) (UniProt A5HWA8).
T6 sequence: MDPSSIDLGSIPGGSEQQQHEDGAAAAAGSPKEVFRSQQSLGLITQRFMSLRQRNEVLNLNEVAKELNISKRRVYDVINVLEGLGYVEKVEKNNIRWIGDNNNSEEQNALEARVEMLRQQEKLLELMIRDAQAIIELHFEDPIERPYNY

The subject of series [7] is T7, C34D1.1 (C34D1.1) (Caenorhabditis elegans).
T7 sequence: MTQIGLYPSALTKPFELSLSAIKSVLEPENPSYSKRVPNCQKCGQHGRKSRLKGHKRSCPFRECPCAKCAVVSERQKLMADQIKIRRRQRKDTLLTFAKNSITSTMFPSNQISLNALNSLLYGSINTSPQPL

Series [8] addresses T8, T22H9.4 (T22H9.4) (Caenorhabditis elegans) (UniProt Q9TXN8).
T8 sequence: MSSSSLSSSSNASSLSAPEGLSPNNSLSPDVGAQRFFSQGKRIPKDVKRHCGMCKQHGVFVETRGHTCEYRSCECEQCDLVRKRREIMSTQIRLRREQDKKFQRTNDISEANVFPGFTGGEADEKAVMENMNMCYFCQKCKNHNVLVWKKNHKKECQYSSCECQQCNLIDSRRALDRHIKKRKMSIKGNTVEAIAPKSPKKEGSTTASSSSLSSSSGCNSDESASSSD

“TCATAACA (double strand) [8-mer TCATAACA]” gave a binding signal (PBM E-score (-0.5 to 0.5)) in series [1] of 0.485.
Same read-out and setting: to “CAAAACAA (double strand) [8-mer CAAAACAA]” belongs 0.494.
The sequence “CCGATATC (double strand) [8-mer CCGATATC]” registered a binding signal (PBM E-score (-0.5 to 0.5)) in series [2] of 0.487.
For “CTTATCTA (double strand) [8-mer CTTATCTA]”, in series [3], the binding signal (PBM E-score (-0.5 to 0.5)) was determined as 0.493.
The same measure, in the same setting: to “AGATAACA (double strand) [8-mer AGATAACA]” belongs 0.488.
The sequence “TGGCAACA (double strand) [8-mer TGGCAACA]” yielded a binding signal (PBM E-score (-0.5 to 0.5)) in series [4] of 0.481.
As for “AGTGATAA (double strand) [8-mer AGTGATAA]”, in series [5], the binding signal (PBM E-score (-0.5 to 0.5)) was determined as 0.495.
For “ACGCAACA (double strand) [8-mer ACGCAACA]”, the binding signal (PBM E-score (-0.5 to 0.5)) in series [4] came out at 0.484.
For the sequence “CAGATAAG (double strand) [8-mer CAGATAAG]”, the binding signal (PBM E-score (-0.5 to 0.5)) in series [3] amounted to 0.491.
Sequence “GATGTTGC (double strand) [8-mer GATGTTGC]” returned a binding signal (PBM E-score (-0.5 to 0.5)) in series [4] of 0.495.
Take “AGATAAGA (double strand) [8-mer AGATAAGA]”: the binding signal (PBM E-score (-0.5 to 0.5)) in series [2] amounted to 0.484; in series [3] it was 0.496.
Sequence “GCAACATA (double strand) [8-mer GCAACATA]” displayed a binding signal (PBM E-score (-0.5 to 0.5)) in series [4] of 0.493.
“GATATCGA (double strand) [8-mer GATATCGA]”: the binding signal (PBM E-score (-0.5 to 0.5)) in series [2] is 0.484.
“TCAAAACA (double strand) [8-mer TCAAAACA]”: the binding signal (PBM E-score (-0.5 to 0.5)) in series [1] is 0.491.
The same measure, in the same setting: to “AAAAACAA (double strand) [8-mer AAAAACAA]” belongs 0.49.
Turning to “AGATAAGC (double strand) [8-mer AGATAAGC]”, the binding signal (PBM E-score (-0.5 to 0.5)) in series [3] was determined as 0.493.
In series [4], “ATGCAACA (double strand) [8-mer ATGCAACA]” showed a binding signal (PBM E-score (-0.5 to 0.5)) of 0.482.
Sequence “ATCTAATC (double strand) [8-mer ATCTAATC]” returned a binding signal (PBM E-score (-0.5 to 0.5)) in series [2] of 0.487.
“AATAACAA (double strand) [8-mer AATAACAA]”: in series [1], the binding signal (PBM E-score (-0.5 to 0.5)) turned out to be 0.494.
As to “GATAAGAA (double strand) [8-mer GATAAGAA]”, the binding signal (PBM E-score (-0.5 to 0.5)) in series [3] was 0.488.
In the case of “CGCAACAA (double strand) [8-mer CGCAACAA]”, in series [4], the binding signal (PBM E-score (-0.5 to 0.5)) was determined as 0.487.
In series [5], “CTTATCAC (double strand) [8-mer CTTATCAC]” registered a binding signal (PBM E-score (-0.5 to 0.5)) of 0.496.
Sequence “AGCGCGCC (double strand) [8-mer AGCGCGCC]” registered a binding signal (PBM E-score (-0.5 to 0.5)) in series [6] of 0.488.
Same read-out and setting: the figure for “ATGCGCGC (double strand) [8-mer ATGCGCGC]” is 0.485.
Take “GAGCGCGC (double strand) [8-mer GAGCGCGC]”: the binding signal (PBM E-score (-0.5 to 0.5)) in series [6] came out at 0.486.
Sequence “TATCGATA (double strand) [8-mer TATCGATA]” came in with a binding signal (PBM E-score (-0.5 to 0.5)) in series [2] of 0.49.
Consider “ACGCGCGC (double strand) [8-mer ACGCGCGC]”, for which, in series [6], the binding signal (PBM E-score (-0.5 to 0.5)) stood at 0.49.
Take “AGAGATAA (double strand) [8-mer AGAGATAA]”: the binding signal (PBM E-score (-0.5 to 0.5)) in series [3] was determined as 0.492.
Consider “AGATAAGG (double strand) [8-mer AGATAAGG]”, for which the binding signal (PBM E-score (-0.5 to 0.5)) was 0.484 in series [2] and 0.496 in series [3].
On to “TCTTATCA (double strand) [8-mer TCTTATCA]”, for which the binding signal (PBM E-score (-0.5 to 0.5)) was 0.495 in series [5] and 0.491 in series [3].
In turn, “GTGATAAA (double strand) [8-mer GTGATAAA]” came in with a binding signal (PBM E-score (-0.5 to 0.5)) in series [5] of 0.491.
In series [4], “ATGTTGCC (double strand) [8-mer ATGTTGCC]” came in with a binding signal (PBM E-score (-0.5 to 0.5)) of 0.477.
In series [5], “GTGATAAC (double strand) [8-mer GTGATAAC]” showed a binding signal (PBM E-score (-0.5 to 0.5)) of 0.492.
In the case of “TGTTGCAA (double strand) [8-mer TGTTGCAA]”, the values for the binding signal (PBM E-score (-0.5 to 0.5)) in series [7], in series [8] and in series [4] were 0.469, 0.499 and 0.497, respectively.
“GAAAACAA (double strand) [8-mer GAAAACAA]” yielded a binding signal (PBM E-score (-0.5 to 0.5)) in series [1] of 0.489.
With “CGATAAGA (double strand) [8-mer CGATAAGA]”, the binding signal (PBM E-score (-0.5 to 0.5)) in series [2] is 0.487.
In series [6], “CGCGCGCA (double strand) [8-mer CGCGCGCA]” registered a binding signal (PBM E-score (-0.5 to 0.5)) of 0.491.
As to “ATTGTTGC (double strand) [8-mer ATTGTTGC]”, in series [4], the binding signal (PBM E-score (-0.5 to 0.5)) was determined as 0.486.
Still for that read-out and setting: the figure for “TCGCAACA (double strand) [8-mer TCGCAACA]” is 0.499.
On to “AACAACAA (double strand) [8-mer AACAACAA]”, for which the binding signal (PBM E-score (-0.5 to 0.5)) in series [1] came out at 0.487.
As for “GCGCGCCA (double strand) [8-mer GCGCGCCA]”, the binding signal (PBM E-score (-0.5 to 0.5)) in series [6] was 0.49.
For the sequence “GGTGATAA (double strand) [8-mer GGTGATAA]”, the binding signal (PBM E-score (-0.5 to 0.5)) in series [5] is 0.494.
“GATATCGC (double strand) [8-mer GATATCGC]” returned a binding signal (PBM E-score (-0.5 to 0.5)) in series [2] of 0.487.
Turning to “GCGCGCGA (double strand) [8-mer GCGCGCGA]”, the binding signal (PBM E-score (-0.5 to 0.5)) in series [6] was determined as 0.485.
Still for that read-out and setting: the figure for “ACCCGCGC (double strand) [8-mer ACCCGCGC]” is 0.486; for “GCGCGCAC (double strand) [8-mer GCGCGCAC]” it is 0.487; for “AGGCGCGC (double strand) [8-mer AGGCGCGC]” it is 0.487.
Regarding “CCTTATCG (double strand) [8-mer CCTTATCG]”, the binding signal (PBM E-score (-0.5 to 0.5)) in series [2] worked out at 0.486.
In series [1], “CATAACAA (double strand) [8-mer CATAACAA]” came in with a binding signal (PBM E-score (-0.5 to 0.5)) of 0.486.
As for “CGATATCG (double strand) [8-mer CGATATCG]”, in series [2], the binding signal (PBM E-score (-0.5 to 0.5)) is 0.496.
“CGCGCGCC (double strand) [8-mer CGCGCGCC]”: the binding signal (PBM E-score (-0.5 to 0.5)) in series [6] turned out to be 0.488.
“ATGTTGCG (double strand) [8-mer ATGTTGCG]” returned a binding signal (PBM E-score (-0.5 to 0.5)) in series [4] of 0.499.
On to “GAGATAAC (double strand) [8-mer GAGATAAC]”, for which the binding signal (PBM E-score (-0.5 to 0.5)) in series [3] was determined as 0.487.
As to “GCTTATCA (double strand) [8-mer GCTTATCA]”, in series [5], the binding signal (PBM E-score (-0.5 to 0.5)) turned out to be 0.493.
Regarding “CCGCAACA (double strand) [8-mer CCGCAACA]”, in series [4], the binding signal (PBM E-score (-0.5 to 0.5)) is 0.482.
The sequence “CAATAACA (double strand) [8-mer CAATAACA]” registered a binding signal (PBM E-score (-0.5 to 0.5)) in series [1] of 0.488.
Turning to “AGATAACG (double strand) [8-mer AGATAACG]”, in series [3], the binding signal (PBM E-score (-0.5 to 0.5)) is 0.49.
In turn, “CGATAACG (double strand) [8-mer CGATAACG]” displayed a binding signal (PBM E-score (-0.5 to 0.5)) in series [2] of 0.483.
Consider “GTTGCAAC (double strand) [8-mer GTTGCAAC]”, for which the results for the binding signal (PBM E-score (-0.5 to 0.5)) in series [8] and in series [4] were 0.489 and 0.479, respectively.
In series [3], “AAGATAAG (double strand) [8-mer AAGATAAG]” returned a binding signal (PBM E-score (-0.5 to 0.5)) of 0.493.
As for “TAAAAACA (double strand) [8-mer TAAAAACA]”, in series [1], the binding signal (PBM E-score (-0.5 to 0.5)) amounted to 0.485.
“CCGATAAG (double strand) [8-mer CCGATAAG]”: in series [2], the binding signal (PBM E-score (-0.5 to 0.5)) was found to be 0.486.
In series [3], “CTTATCTC (double strand) [8-mer CTTATCTC]” had a binding signal (PBM E-score (-0.5 to 0.5)) of 0.496.
Same read-out and setting: to “GGAGATAA (double strand) [8-mer GGAGATAA]” belongs 0.49.
Take “AAAACAAC (double strand) [8-mer AAAACAAC]”: the binding signal (PBM E-score (-0.5 to 0.5)) in series [1] is 0.491.
